The source of these data is patent publication US20130172533A1 (INDUSTRIAL TECHNOLOGY RESEARCH INSTITUTE, published 2013).

This assay deals with T1, human CD34 surface antigen on KG1a cells (human, UniProt P28906 32-385).
T1 construct: whole, on cells; The target was always presented on KG1a cells; No recombinant CD34 was used; also called surface antigen CD34; CD34 antigen
T1 sequence (looked up): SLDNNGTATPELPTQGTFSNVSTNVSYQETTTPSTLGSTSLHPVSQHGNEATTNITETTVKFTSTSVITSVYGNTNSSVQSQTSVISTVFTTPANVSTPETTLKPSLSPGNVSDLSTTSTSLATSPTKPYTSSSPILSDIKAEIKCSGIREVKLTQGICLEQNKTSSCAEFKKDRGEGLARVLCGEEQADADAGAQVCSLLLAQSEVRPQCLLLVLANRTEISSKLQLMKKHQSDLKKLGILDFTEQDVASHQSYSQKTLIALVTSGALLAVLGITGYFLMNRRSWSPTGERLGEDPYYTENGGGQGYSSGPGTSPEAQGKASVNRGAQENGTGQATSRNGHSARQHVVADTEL
The experiment in a line: flow cytometry, antibody titration on CD34+ KG1a cells. The procedure: KG1a cells expressing the surface antigen CD34 were used for determining the antibody binding affinity. The antibody in aliquots were individually added into KG1a cells (about 1×10⁶ cells) and reacted at 4° C. for 1 hour. The cells were washed with the FACS buffer (DPBS buffer with 2% fetus bovine serum) three times and then treated with the goat anti-mouse IgG (H+L) Alexa Fluor 488 responsive to mMy10 IgG and the goat anti-human IgG (H+L) Alexa Fluor 647 responsive to hMy10 IgG at 4° C. for 1 hour. The cells were further washed with the FACS buffer and analyzed under the FACSCalibur flow cytometer.
For determining the binding affinity of hMy10 IgG and mMy10 IgG to the surface antigen CD34 of human stem cells, a KG1a cell line was used as the cell expressing the surface antigen CD34.
For orientation: In flow cytometry, cells or beads pass a laser one at a time.

Regarding “anti-My10 murine monoclonal antibody (mMy10 IgG)”, the Kd (usually the free concentration of one partner at which half of the binding sites on the other are occupied at equilibrium, for simple one-to-one binding) turned out to be 6.7 nM.

B1: humanized My10 IgG (hMy10 IgG) (antibody, V domains shown)
VH: EVQLVESGGGLVQPGGSLRLSCAVSGFSLTSHGVHWVRQAPGKGLEWLGVIWGAGRTDYNAAFISRLSISRDISKSQVYLQMNSLRAEDTAVYYCARNRYESYFDYWGQGTLVTVSS
VL: DIQMTQSPSSLSASVGDRVTITCRSSQNLVHSNGNTYLHWYQQKPGKAPKLLIYKVSNRFSGVPDRFSGSGSGTEFTLTISSLQPEDFATYYCSQSTHVPLTFGQGTKVEIKR
notes: also called humanized My10 (hMy10) IgG1; humanized anti-human CD34 monoclonal antibody
Molecule B1 returned a Kd of 6.9 nM.
